Results reported in US20220154138A1, “METHOD OF PRODUCING PLACENTA-LIKE ORGANOID, PLACENTA-LIKE ORGANOID, AND PRODUCTION OR TEST KIT” (FUJIFILM Corporation, priority 2020, published 2022).

System: iPS cells
Experiment: Three-dimensional suspension (spinner flask) culture of iPS cells with BMP4, hCG by GONASTICK W
Type: cell-based, human
Settings: for hCG production: Example 1, spinner flask
Procedure: In GONASTICK W, about 0.5 to 1 mL of the culture supernatant was sampled, and a test strip was soaked therein. After the soaking was completed, the determination surface of the test strip was placed to face upward and allowed to stand until the culture supernatant passed through the determination window and reached the reaction end window. […] The detection sensitivity of the present examination reagent is 25 IU/L, and a blue control line corresponding to an hCG concentration of 1,000 IU/L is printed in advance on the determination window, which can be visually compared with the determination line.
In a case where a line equal to or more blue-colored than the control line was visually observed on the determination line, it was judged as positive (+).
In a case where the line was not visually observed on the determination line, it was determined to be negative (−).
In a case where a line that was less blue-colored than the control line but was visible was visually observed on the determination line, it was determined to be (+/−).
30 mL of an iPS cell medium (StemFit (registered trade name) AK02N: Ajinomoto Co., Inc.) was dispensed into a 30 mL volume spinner flask (ABLE Corporation), and then iPS cells (1.6×10^7 cells/mL) were seeded. BMP4 was not added at the start of culture, but 30 μL of a solution containing 50 μg/mL BMP4 (R&D Systems Inc.) was added on the 4th day of culture so that the final concentration of BMP4 in the medium was to be 50 ng/mL. In a case where BMP4 was added to Example 2 and subsequent Examples, the same concentration was used. After the start of culture, the addition of BMP4 was continued until the 18th day of culture while exchanging half of the medium every 3 to 4 days, and thereafter, only the medium was exchanged without adding BMP4. Cell aggregates (spheroids) were formed by the 4th day of culture (FIG. 1). The stirring culture was continued in a spinner flask throughout the culture period. Although the hCG production was not confirmed until the 11th day of culture, the hCG production was confirmed after the 15th day of culture, and it was confirmed that the hCG production was continued even after the 60th day of culture (Table 2).
30 mL of an iPS cell medium (StemFit (registered trade name) AK02N: Ajinomoto Co., Inc.) was dispensed into a 30 mL volume spinner flask (ABLE Corporation), and then iPS cells (1.1×10^7 cells/bottle) were seeded. The comparison was carried out between the level 1 in which BMP4 was not added at the start of culture but added on the 4th day of culture and the level 2 in which BMVP was added from the start of culture. BMP4 was added so that the concentration in the medium was 50 ng/mL in both the level 1 and the level 2. After the start of culture, half of the medium was exchanged every 3 to 4 days, and after the 18th day of culture, the medium was exchanged for both the level 1 and the level 2 with a medium to which BMP4 had not been added. By the 4th day of culture, cell aggregates (spheroids) were formed. Regarding the level 1 and the level 2, stirring culture was continued in a spinner flask from the initial stage of culture, and the hCG production was checked. In a case where BMP4 is added from the start of culture (the level 2), the hCG production is started earlier; however, the hCG production also stops earlier. On the other hand, in a case where BMP4 is added after the 4th day of culture (the level 1), the hCG production is slightly delayed; however, it continued for a long time.

B1: BMP4: bone morphogenetic protein BMP4 (R&D Systems Inc.), added to iPS cell medium at 50 ng/mL to induce differentiation (protein, UniProt P12644 293-408, looked up)
Bone morphogenetic protein 4: SPKHHSQRARKKNKNCRRHSLYVDFSDVGWNDWIVAPPGYQAFYCHGDCPFPLADHLNSTNHAIVQTLVNSVNSSIPKACCVPTELSAISMLYLDEYDKVVLKNYQEMVVEGCGCR
In the case of B1, the hCG production (BMP4 50 ng/mL day 4 to 18, day 15) is reported as “+ (a line equal to or more blue-colored than the control line was visually observed on the determination line, it was judged as positive (+))”, the hCG production (BMP4 50 ng/mL day 4 to 18, day 39) is reported as “+ (a line equal to or more blue-colored than the control line was visually observed on the determination line, it was judged as positive (+))” and the hCG production (BMP4 50 ng/mL day 4 to 18, day 53) is reported as “+ (a line equal to or more blue-colored than the control line was visually observed on the determination line, it was judged as positive (+))”. For the same molecule, the hCG production (BMP4 50 ng/mL day 4 to 18, day 67) was “+ (a line equal to or more blue-colored than the control line was visually observed on the determination line, it was judged as positive (+))”, the HCG production (level 1: BMP4 50 ng/mL added from day 4, spinner flask, day 8) was “− (the line was not visually observed on the determination line, it was determined to be negative (−))” and the HCG production (level 1: BMP4 added from day 4, day 11) was “− (the line was not visually observed on the determination line, it was determined to be negative (−))”. For the same molecule, the HCG production (level 1: BMP4 added from day 4, day 14) was “+/− (a line that was less blue-colored than the control line but was visible was visually observed on the determination line, it was determined to be (+/−))”, the HCG production (level 1: BMP4 added from day 4, day 18) was “+ (a line equal to or more blue-colored than the control line was visually observed on the determination line, it was judged as positive (+))” and the HCG production (level 1: BMP4 added from day 4, day 21) was “+ (a line equal to or more blue-colored than the control line was visually observed on the determination line, it was judged as positive (+))”. The HCG production (level 1: BMP4 added from day 4, day 25) was “+ (a line equal to or more blue-colored than the control line was visually observed on the determination line, it was judged as positive (+))”, the HCG production (level 1: BMP4 added from day 4, day 28) was “+ (a line equal to or more blue-colored than the control line was visually observed on the determination line, it was judged as positive (+))” and the HCG production (level 1: BMP4 added from day 4, day 32) was “+ (a line equal to or more blue-colored than the control line was visually observed on the determination line, it was judged as positive (+))”. The HCG production (level 2: BMP4 50 ng/mL added from start of culture, spinner flask, day 8) was “+ (a line equal to or more blue-colored than the control line was visually observed on the determination line, it was judged as positive (+))”, the HCG production (level 2: BMP4 added from start of culture, day 11) was “+ (a line equal to or more blue-colored than the control line was visually observed on the determination line, it was judged as positive (+))” and the HCG production (level 2: BMP4 added from start of culture, day 14) was “+ (a line equal to or more blue-colored than the control line was visually observed on the determination line, it was judged as positive (+))”. The HCG production (level 2: BMP4 added from start of culture, day 18) was “+ (a line equal to or more blue-colored than the control line was visually observed on the determination line, it was judged as positive (+))”, the HCG production (level 2: BMP4 added from start of culture, day 21) was “+ (a line equal to or more blue-colored than the control line was visually observed on the determination line, it was judged as positive (+))” and the HCG production (level 2: BMP4 added from start of culture, day 25) was “+/− (a line that was less blue-colored than the control line but was visible was visually observed on the determination line, it was determined to be (+/−))”. For the same molecule, the HCG production (level 2: BMP4 added from start of culture, day 28) was “− (the line was not visually observed on the determination line, it was determined to be negative (−))” and the HCG production (level 2: BMP4 added from start of culture, day 32) was “− (the line was not visually observed on the determination line, it was determined to be negative (−))”.
